Measured values taken from article PMC12445699.

How the values were obtained:
[1] = target: H3.3S31ph-nucleosome (H3.3-nucleosome with Ser31 phosphorylation) (UniProt P84243)
[2] = target: H3.3S31A-nucleosome (UniProt P84243)
[3] = target: H3.3S31E-nucleosome (UniProt P84243)
[4] = target: H3-nucleosome (mono-nucleosome with canonical H3) (UniProt P84233)
[5] = target: H3.3-nucleosome (mono-nucleosome with the variant H3.3) (UniProt P84243)

- force of disruption in the first stretching cycle in the presence of FACT; no transitions in later cycles (magnetic tweezers) [1]: 13.9 pN
- rupture force at which the nucleosome is completely disrupted in the presence of FACT (magnetic tweezers) [2]: 25.4 pN
- rupture force at which the nucleosome is completely disrupted in the presence of FACT (magnetic tweezers) [3]: 25.4 pN
- rupture force at which the nucleosome is completely disrupted in the presence of FACT (magnetic tweezers) [4]: 6.7 pN
- rupture force at which the nucleosome is completely disrupted in the presence of FACT (magnetic tweezers) [5]: 24.5 pN
Substance: FACT (Facilitates Chromatin Transcription) complex (from UniProt Q9Y5B9 1-1047; Q08945 1-709)
